# Experimental data reported in article PMC8034861.
# Biological target: Alexa Fluor 488-PR30 peptide (human)
# Test: single-molecule TIRF motility assay, co-transport of peptide foci with motors; 1 μM fluorescent PR30 with KIF5B::GFP or TMR-dynein-dynactin-BICD2N on immobilised microtubules; motility buffer with 25 mM KCl, α-casein, 5 mM MgATP; 23 ± 1°C; foci of PR30 moving with processive motors scored on kymographs
# Sequence of Alexa Fluor 488-PR30 peptide (human) (peptide, as listed by the source): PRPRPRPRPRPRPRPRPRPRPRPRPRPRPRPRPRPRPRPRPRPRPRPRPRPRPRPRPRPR
substance,measurement,value
TMR-dynein-dynactin-BICD2N complex (from UniProt Q14204 1-4646; A0A287B8J2 1-1281),percent of processive motor complexes transporting large foci of PR30,8.1%
